Source: patent publication US20230340555A1, “PRODUCTION OF GLYCOSYLATED CANNABINOIDS” (WILLOW BIOSCIENCES, INC., priority 2020, published 2023)

Columns and labels:
[1] = cited from earlier work
[2] = tested on: bacterial strain BL21 (DE3); assay: CBDA depletion in BL21 (DE3) strains expressing UGTs (UHPLC-MS); format: cell-based; settings: 0.1 mM CBDA, induced with 100 µM IPTG for 4h at 37° C. vs controls without induction
Description: The following cDNAs encoding UGTs from Arabidopsis thaliana, Cannabis sativa and Helianthus annuus UGTs were cloned into pDONOR-zeo (as described in Example 1) and then recombined into the prokaryotic expression vector pDEST14: AtUGT73C6 (SEQ ID NO: 3), AtUGT88A1 (SEQ ID NO: 5), AtUGT71 D1 (SEQ ID NO: 7), AtUGT73B4 (SEQ ID NO: 9), AtUGT76C4 (SEQ ID NO: 11), AtUGT76E12 (SEQ ID NO: 13), and At5g49690 (SEQ ID NO: 17), CsUGT73C6 (SEQ ID NO: 15), HaUGT76G1L (SEQ ID NO: 1), and SrUGT76G1 (SEQ ID NO: 19). Host cells from the bacterial strain BL21 (DE3) were transformed individually pDEST14 vector.
A BL21 (DE3) single colony was inoculated in liquid media and incubated at 37° C. overnight. The bacterial cultures were diluted to a final 0.6 OD and CBDA was added to a final concentration of 0.1 mM. The cultures were split, and half was induced with 100 µM IPTG for 4h at 37° C. to express the UGTs and the other half was kept as controls without induction of UGT expression.
Subsequently, samples were treated with a 1:1 volume of acetonitrile for 15 minutes at 250 RPM. After 30 minutes centrifugation at 4,000 RPM, samples were diluted 1000-fold in the same solvent for further analysis.
CBDA depletion was assayed employing UHPLC-MS analysis. The instrument used was a Thermo Vanquish UHPLC connected to a Thermo TSQ Altis mass spectrometer. The UHPLC consists of a vacuum degasser, a ternary pump, a thermostated autosampler held at 5° C., and a thermostated column compartment. An Accucore C18 (150 × 2.2 mm, 2.6 µm, Thermo, USA) was used. The mobile phase is water with 0.1 % formic acid (A) and acetonitrile with 0.1 % formic acid (B) on a linear gradient (see Table 5). The flow rate was set at 0.800 mL/min. The column temperature was set at 30° C. The sample injection volume was 1 µL.
MS analyses were carried out in order to ensure the identity of the peaks and were performed on a Thermo TSQ Altis triple quadrupole mass spectrometer using electrospray ionization in negative mode. Compounds were analyzed using selected reaction monitoring using two ion pairs for quantitation and confirmation respectively.

[3] = tested on: CN3 yeast strain host cells; assay: Detection of glycosylated cannabinoids and cannabinoid precursors in yeast cells expressing UDP-glycosyl transferase (HPLC-MS); format: cell-based; design: key to CBDA-glc / OLA-glc / CBGA-glc / CBGA-(glc)2 / CBD-glc / CBD-(glc)2 / OLA-(glc)2 / CBGA-glucuronic acid: (+) represents the lowest detected quantities; (++), (+++), and (++++) signify relative increasing intermediate detected levels; (++), (+++), and (++++) signify relative increasing intermediate detected levels; (++), (+++), and (++++) signify relative increasing intermediate detected levels; (+++++) represents the highest detected quantities; No detectable levels of a glycosylated cannabinoid compound or glycosylated cannabinoid precursor compound are indicated by “n.d.”; settings: for production of glycosylated cannabinoids or cannabinoid precursor compounds: pellet or supernatant of recombinant yeast host cells transformed with the UGT; for CBD-glc: 0.5 g/L CBD
Outline: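 CN3 yeast host cells carrying a heterologous UDP-glycosyl transferase gene were grown overnight in YPD, then diluted into YPG to OD600 = 0.2 and shaken at 600 RPM and 28° C. Cell pellets and supernatants were extracted for 1 hour in 80 % Acetonitrile/20 % Methanol, centrifuged at 12,000 RPM, filtered (0.22 µm), and checked for glycosylated cannabinoids and precursors by HPLC and negative-mode ESI QToF HPLC-MS.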

[4] = 20 h growth, detected in PELLET, 0.05 mM hexanoic acid

| Molecule | solubility in water [1] | decrease in CBDA content [2] | CBDA-glc [3, 4] | production of glycosylated cannabinoids or cannabinoid precursor compounds [3] | CBGA-glc [3, 4] | OLA-glc [3, 4] | CBD-glc ([3]; 20 h growth, detected in PELLET) | OLA-glc ([3]; 20 h growth, detected in SUPERNATANT, 0.2 mM hexanoic acid) | CBD-glc ([3]; 20 h growth, detected in SUPERNATANT) |
| --- | --- | --- | --- | --- | --- | --- | --- | --- | --- |
| CCCCCc1cc(O)c2c(c1)OC(C)(C)C1CCC(C)=CC21 (centres unmarked) [Δ^9-THC, Δ^9-tetrahydrocannabinol] | less than 0.01 mg/ml | – | – | – | – | – | – | – | – |
| At5g49690: UDP-glycosyl transferase from Arabidopsis thaliana, amino acid sequence SEQ ID NO: 18 (protein, listed as Arabidopsis thaliana) MVDKREEVMHVAMFPWLAMGHLLPFLRLSKLLAQKGHKISFISTPRNIERLPKLQSNLASSITFVSFPLPPISGLPPSSESSMDVPYNKQQSLKAAFDLLQPPLKEFLRRSSPDWIIYDYASHWLPSIAAELGISKAFFSLFNAATLCFMGPSSSLIEEIRSTPEDFTVVPPWVPFKSNIVFRYHEVTRYVEKTEEDVTGVSDSVRFGYSIDESDAVFVRSCPEFEPEWFGLLKDLYRKPVFPIGFLPPVIEDDDAVDTTWVRIKKWLDKQRLNSVVYVSLGTEASLRHEEVTELALGLEKSETPFFWVLRNEPKIPDGFKTRVKGRGMVHVGWVPQVKILSHESVGGFLTHCGWNSVVEGLGFGKVPIFFPVLNEQGLNTRLLHGKGLGVEVSRDERDGSFDSDSVADSIRLVMIDDAGEEIRAKAKVMKDLFGNMDENIRYVDELVRFMRSKGSSSSS | – | 9% | + | detected | – | – | – | – | – |
| AtUGT71 D1: UDP-glycosyl transferase from Arabidopsis thaliana, amino acid sequence SEQ ID NO: 8 (protein, listed as Arabidopsis thaliana) MRNVELIFIPTPTVGHLVPFLEFARRLIEQDDRIRITILLMKLQGQSHLDTYVKSIASSQPFVRFIDVPELEEKPTLGSTQSVEAYVYDVIERNIPLVRNIVMDILTSLALDGVKVKGLVVDFFCLPMIDVAKDISLPFYVFLTTNSGFLAMMQYLADRHSRDTSVFVRNSEEMLSIPGFVNPVPANVLPSALFVEDGYDAYVKLAILFTKANGILVNSSFDIEPYSVNHFLQEQNYPSVYAVGPIFDLKAQPHPEQDLTRRDELMKWLDDQPEASVVFLCFGSMARLRGSLVKEIAHGLELCQYRFLWSLRKEEVTKDDLPEGFLDRVDGRGMICGWSPQVEILAHKAVGGFVSHCGWNSIVESLWFGVPIVTWPMYAEQQLNAFLMVKELKLAVELKLDYRVHSDEIVNANEIETAIRYVMDTDNNVVRKRVMDISQMIQRATKNGGSSFAAIEKFIYDVIGIKP | – | 9% | ++ | detected | + | ++ | +++ | ++ | +++ |
| SrUGT76G1: UDP-glycosyl transferase from Stevia rebaudiana, amino acid sequence SEQ ID NO: 20 (protein, listed as Stevia rebaudiana) MENKTETTVRRRRRIILFPVPFQGHINPILQLANVLYSKGFSITIFHTNFNKPKTSNYPHFTFRFILDNDPQDERISNLPTHGPLAGMRIPIINEHGADELRRELELLMLASEEDEEVSCLITDALWYFAQSVADSLNLRRLVLMTSSLFNFHAHVSLPQFDELGYLDPDDKTRLEEQASGFPMLKVKDIKSAYSNWQILKEILGKMIKQTRASSGVIWNSFKELEESELETVIREIPAPSFLIPLPKHLTASSSSLLDHDRTVFQWLDQQPPSSVLYVSFGSTSEVDEKDFLEIARGLVDSKQSFLWVVRPGFVKGSTWVEPLPDGFLGERGRIVKWVPQQEVLAHGAIGAFWTHSGWNSTLESVCEGVPMIFSDFGLDQPLNARYMSDVLKVGVYLENGWERGEIANAIRRVMVDEEGEYIRQNARVLKQKADVSLMKGGSSYESLESLVSYISSL | – | 21% | – | No production | – | – | – | – | – |
